Columns and labels:
[1] = NETTER-2 serious adverse events in the randomized treatment period (Safety Set)
Source text: All adverse events (AEs), whether or not spontaneously reported by the patient, will be recorded starting from the signing of the ICF until the end of the Treatment Phase. Safety summaries (tables, figures) include only data from the on-treatment period with the exception of baseline data which will also be summarized where appropriate (e.g. change from baseline summaries). In addition, a separate summary for death including on treatment and post treatment deaths will be provided. In particular, summary tables for adverse events (AEs) will summarize only on-treatment events, with a start date during the on-treatment period (treatment-emergent AEs).
Separate summaries will be provided for study medication related adverse events, death, serious adverse events, other significant adverse events leading to discontinuation and adverse events leading to dose adjustment.

[2] = system: Grade 2 and Grade 3 advanced GEP-NET; assay: NETTER-2 best overall response, ORR and DCR, central review using RECIST 1.1; type: in vivo, human; details: central review, Full Analysis Set
Source text: Objective Response Rate (ORR) will be calculated as the rate of patients with a best overall response of partial response (PR) or complete response (CR). Response duration will be calculated from the time of initial response until documented tumor progression. The Duration of Response (DOR) is defined as the time from initially meeting the criteria for response (CR or PR) until the time of progression by RECIST or death due to underlying disease. DOR will be reported descriptively for each group without comparison between groups.
Overall response rate (ORR) is defined as the proportion of subjects with best overall response (BOR) of complete response (CR) or partial response (PR), as per central review and according to RECIST 1.1.
ORR will be calculated based on the FAS and according to the ITT principle. ORR and its 95% confidence interval will be presented by treatment group. The Cochran-Mantel-Haenszel chi-square test, stratified by the randomization stratification factors, will be used to compare ORR between the two treatment groups, at the 1-sided 2.5% level of significance. As a supportive analysis, ORR as per local review will be presented by treatment group, along with 95% confidence intervals.
More precisely, it counts the presence of at least one confirmed CR or confirmed PR or SD. The DCR will be calculated based on FAS according to the ITT principle. DCR and its 95% confidence interval will be presented by treatment group. The Cochrane-Mantel-Haenszel chi-square test, stratified by the randomization stratification factors, will be used to compare DCR between the two treatment groups, at the one-sided 2.5% level of significance. The p-value to be generated using the Cochrane-Mantel-Haenszel chi-square test is considered nominal, and not to be considered confirmatory as it is not part of the testing strategy. The SAP will advise on how to proceed in case of few events in any stratum.

[3] = in vivo; cited from earlier work
[4] = NETTER-2 subject disposition: discontinuation of randomized treatment phase (Full Analysis Set); type: in vivo, human
Source text: The discontinuation of either study treatments in both arms (Lutathera or octreotide long-acting) is not a reason for patient's withdrawal either from the clinical/tumor assessments until tumor progression, or for early study termination. However, in case of a patient's withdrawal from the clinical/tumor assessments or early study termination (based on either the patient's or the Investigator's decision), patients will undergo all exams scheduled for the End of Treatment (EOT) visit.
The Full Analysis Set (FAS) comprises all subjects to whom study treatment has been assigned by randomization. According to the intent to treat principle, subjects will be analyzed according to the treatment and strata they have been assigned to during the randomization procedure.

OCT2 = OCT2 (Homo sapiens, UniProt O15244)
OCT2, sequence (O15244 whole entry): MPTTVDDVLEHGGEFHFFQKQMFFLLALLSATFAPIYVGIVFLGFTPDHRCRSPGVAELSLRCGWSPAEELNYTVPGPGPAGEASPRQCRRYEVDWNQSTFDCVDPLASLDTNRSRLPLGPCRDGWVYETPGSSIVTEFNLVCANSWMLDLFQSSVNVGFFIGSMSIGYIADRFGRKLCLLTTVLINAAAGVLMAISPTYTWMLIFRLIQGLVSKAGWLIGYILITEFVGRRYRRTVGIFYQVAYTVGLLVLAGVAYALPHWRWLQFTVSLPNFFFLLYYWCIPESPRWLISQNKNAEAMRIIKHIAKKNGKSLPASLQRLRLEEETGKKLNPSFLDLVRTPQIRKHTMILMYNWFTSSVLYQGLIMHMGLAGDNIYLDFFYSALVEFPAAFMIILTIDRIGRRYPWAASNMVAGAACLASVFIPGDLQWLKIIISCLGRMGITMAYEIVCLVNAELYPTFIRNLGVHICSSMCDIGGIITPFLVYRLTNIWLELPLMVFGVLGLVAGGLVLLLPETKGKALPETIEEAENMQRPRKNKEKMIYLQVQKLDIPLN

OATP1B3 = OATP1B3 (Homo sapiens, UniProt Q9NPD5)
OATP1B3, sequence (Q9NPD5 whole entry): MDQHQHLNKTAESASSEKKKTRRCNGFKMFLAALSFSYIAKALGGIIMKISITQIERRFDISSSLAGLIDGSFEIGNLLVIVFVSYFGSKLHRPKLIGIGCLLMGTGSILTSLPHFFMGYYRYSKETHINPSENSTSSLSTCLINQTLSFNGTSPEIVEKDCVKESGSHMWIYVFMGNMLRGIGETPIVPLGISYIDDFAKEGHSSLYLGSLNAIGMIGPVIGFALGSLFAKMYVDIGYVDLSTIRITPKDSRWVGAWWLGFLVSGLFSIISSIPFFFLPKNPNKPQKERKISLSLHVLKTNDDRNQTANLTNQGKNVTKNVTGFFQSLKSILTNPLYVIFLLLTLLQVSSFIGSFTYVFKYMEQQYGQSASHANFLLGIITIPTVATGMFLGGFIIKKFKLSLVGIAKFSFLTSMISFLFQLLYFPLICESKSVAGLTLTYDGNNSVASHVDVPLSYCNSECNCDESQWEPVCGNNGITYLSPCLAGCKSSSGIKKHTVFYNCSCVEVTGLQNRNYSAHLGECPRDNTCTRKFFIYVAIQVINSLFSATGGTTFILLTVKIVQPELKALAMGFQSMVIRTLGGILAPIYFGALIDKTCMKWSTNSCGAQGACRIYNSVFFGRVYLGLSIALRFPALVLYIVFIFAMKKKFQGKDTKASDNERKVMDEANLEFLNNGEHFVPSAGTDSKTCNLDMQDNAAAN

BCRP = BCRP (Homo sapiens, UniProt Q9UNQ0); details: not told
BCRP, sequence (Q9UNQ0 whole entry): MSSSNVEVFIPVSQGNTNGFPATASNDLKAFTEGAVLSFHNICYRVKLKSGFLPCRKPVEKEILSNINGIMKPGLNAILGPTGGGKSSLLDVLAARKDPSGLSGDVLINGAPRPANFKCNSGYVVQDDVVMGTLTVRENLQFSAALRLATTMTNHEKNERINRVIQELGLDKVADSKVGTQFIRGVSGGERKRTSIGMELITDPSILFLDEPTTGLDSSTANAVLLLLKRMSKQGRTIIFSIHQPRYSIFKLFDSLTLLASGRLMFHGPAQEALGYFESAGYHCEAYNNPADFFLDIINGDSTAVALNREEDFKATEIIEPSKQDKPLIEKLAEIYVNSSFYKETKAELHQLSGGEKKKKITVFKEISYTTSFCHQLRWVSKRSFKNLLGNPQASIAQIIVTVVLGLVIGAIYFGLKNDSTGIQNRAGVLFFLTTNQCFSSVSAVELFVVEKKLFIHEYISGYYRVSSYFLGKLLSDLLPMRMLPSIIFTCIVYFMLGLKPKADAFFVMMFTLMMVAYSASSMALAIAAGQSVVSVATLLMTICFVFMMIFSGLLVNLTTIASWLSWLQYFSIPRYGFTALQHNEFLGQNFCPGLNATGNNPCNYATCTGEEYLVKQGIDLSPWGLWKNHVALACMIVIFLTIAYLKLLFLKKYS

[5] = All grades, randomized treatment period, Safety Set
[6] = Grade >=3, randomized treatment period, Safety Set
[7] = randomized treatment period, Safety Set

C[C@@H](O)[C@H](NC(=O)[C@@H]1CSSC[C@H](NC(=O)[C@@H](Cc2ccccc2)NC(=O)CN2CCN(CC(=O)[O-])CCN(CC(=O)[O-])CCN(CC(=O)[O-])CC2)C(=O)N[C@@H](Cc2ccc(O)cc2)C(=O)N[C@H](Cc2c[nH]c3ccccc23)C(=O)N[C@@H](CCCCN)C(=O)N[C@@H]([C@@H](C)O)C(=O)N1)C(=O)O.[177Lu+3] [Lutathera, ^177Lu-DOTA^0-Tyr^3-Octreotate]
Fatal SAEs [1, 5]: 3 (2.0) n (%)
Fatal SAEs Related to Amino Acids [1, 5]: 0 n (%)
Fatal SAEs Related to Any Treatment [1, 5]: 0 n (%)
Fatal SAEs Related to Lutathera [1, 5]: 0 n (%)
Fatal SAEs Related to Octreotide [1, 5]: 0 n (%)
SAEs [1, 5]: 30 (20.4) n (%)
SAEs Related to Amino Acids [1, 5]: 0 n (%)
SAEs Related to Any Treatment [1, 5]: 8 (5.4) n (%)
SAEs Related to Lutathera [1, 5]: 8 (5.4) n (%)
SAEs Related to Octreotide [1, 5]: 0 n (%)
Serious adverse event: Abdominal pain [1, 5]: 2 (1.4) n (%)
Serious adverse event: Abdominal sepsis [1, 5]: 0 n (%)
Serious adverse event: Acute coronary syndrome [1, 5]: 0 n (%)
Serious adverse event: Acute kidney injury [1, 5]: 0 n (%)
Serious adverse event: Anaemia [1, 5]: 2 (1.4) n (%)
Serious adverse event: Ascites [1, 5]: 1 (0.7) n (%)
Serious adverse event: Blood bilirubin increased [1, 5]: 2 (1.4) n (%)
Serious adverse event: Carcinoid heart disease [1, 5]: 0 n (%)
Serious adverse event: Carcinoid syndrome [1, 5]: 0 n (%)
Serious adverse event: Diarrhoea [1, 5]: 1 (0.7) n (%)
Serious adverse event: Femur fracture [1, 5]: 0 n (%)
Serious adverse event: Gastroenteritis [1, 5]: 0 n (%)
Serious adverse event: Gastrointestinal stoma complication [1, 5]: 2 (1.4) n (%)
Serious adverse event: Generalised oedema [1, 5]: 0 n (%)
Serious adverse event: Hip fracture [1, 5]: 0 n (%)
Serious adverse event: Hyperglycaemia [1, 5]: 0 n (%)
Serious adverse event: Hypertension [1, 5]: 0 n (%)
Serious adverse event: Hypoalbuminaemia [1, 5]: 0 n (%)
Serious adverse event: Intestinal obstruction [1, 5]: 1 (0.7) n (%)
Serious adverse event: Jaundice [1, 5]: 0 n (%)
Serious adverse event: Lower gastrointestinal haemorrhage [1, 5]: 0 n (%)
Serious adverse event: Metabolic encephalopathy [1, 5]: 0 n (%)
Serious adverse event: Oedema peripheral [1, 5]: 1 (0.7) n (%)
Serious adverse event: Pleurisy [1, 5]: 0 n (%)
Serious adverse event: Pyrexia [1, 5]: 2 (1.4) n (%)
Serious adverse event: Small intestinal obstruction [1, 5]: 5 (3.4) n (%)
Serious adverse event: Tumour lysis syndrome [1, 5]: 0 n (%)
Serious adverse events: Number of subjects with at least one event [1, 5]: 30 (20.4) n (%)
Fatal SAEs [1, 6]: 3 (2.0) n (%)
Fatal SAEs Related to Amino Acids [1, 6]: 0 n (%)
Fatal SAEs Related to Any Treatment [1, 6]: 0 n (%)
Fatal SAEs Related to Lutathera [1, 6]: 0 n (%)
Fatal SAEs Related to Octreotide [1, 6]: 0 n (%)
SAEs [1, 6]: 24 (16.3) n (%)
SAEs Related to Amino Acids [1, 6]: 0 n (%)
SAEs Related to Any Treatment [1, 6]: 6 (4.1) n (%)
SAEs Related to Lutathera [1, 6]: 6 (4.1) n (%)
SAEs Related to Octreotide [1, 6]: 0 n (%)
Serious adverse event: Abdominal pain [1, 6]: 2 (1.4) n (%)
Serious adverse event: Abdominal sepsis [1, 6]: 0 n (%)
Serious adverse event: Acute coronary syndrome [1, 6]: 0 n (%)
Serious adverse event: Acute kidney injury [1, 6]: 0 n (%)
Serious adverse event: Anaemia [1, 6]: 1 (0.7) n (%)
Serious adverse event: Ascites [1, 6]: 0 n (%)
Serious adverse event: Blood bilirubin increased [1, 6]: 1 (0.7) n (%)
Serious adverse event: Carcinoid heart disease [1, 6]: 0 n (%)
Serious adverse event: Carcinoid syndrome [1, 6]: 0 n (%)
Serious adverse event: Diarrhoea [1, 6]: 0 n (%)
Serious adverse event: Femur fracture [1, 6]: 0 n (%)
Serious adverse event: Gastroenteritis [1, 6]: 0 n (%)
Serious adverse event: Generalised oedema [1, 6]: 0 n (%)
Serious adverse event: Hip fracture [1, 6]: 0 n (%)
Serious adverse event: Hyperglycaemia [1, 6]: 0 n (%)
Serious adverse event: Hypertension [1, 6]: 0 n (%)
Serious adverse event: Hypoalbuminaemia [1, 6]: 0 n (%)
Serious adverse event: Intestinal obstruction [1, 6]: 0 n (%)
Serious adverse event: Jaundice [1, 6]: 0 n (%)
Serious adverse event: Lower gastrointestinal haemorrhage [1, 6]: 0 n (%)
Serious adverse event: Metabolic encephalopathy [1, 6]: 0 n (%)
Serious adverse event: Oedema peripheral [1, 6]: 0 n (%)
Serious adverse event: Pleurisy [1, 6]: 0 n (%)
Serious adverse event: Pyrexia [1, 6]: 1 (0.7) n (%)
Serious adverse event: Tumour lysis syndrome [1, 6]: 0 n (%)
Serious adverse events: Number of subjects with at least one event [1, 6]: 24 (16.3) n (%)
Incidence of SAEs: Small intestinal obstruction ([1]; most frequent SAE, summary table): 5 (3.4) (%)
Serious AEs ([1]; randomized treatment period): 20.4%
Serious AEs, Treatment-related ([1]; randomized treatment period): 5.4%
SAE with fatal outcome: Blood bilirubin increased [1, 7]: 1 (0.7) n (%)
SAE with fatal outcome: Diarrhoea [1, 7]: 0 n (%)
SAE with fatal outcome: Dyspnoea [1, 7]: 1 (0.7) n (%)
SAE with fatal outcome: Intestinal perforation [1, 7]: 1 (0.7) n (%)
SAE with fatal outcome: Tumor Lysis syndrome [1, 7]: 0 n (%)
SAEs with fatal outcome [1, 7]: 3 (2.0) n (%)
SAEs with fatal outcome reported in subjects with primary reason for death = Disease under Study [1, 7]: 3 (2.0) n (%)
Best Overall Response: Complete Response (CR) [2]: 8 (5.3) n (%)
Best Overall Response: Non-CR/Non-PD [2]: 0 n (%)
Best Overall Response: Partial Response (PR) [2]: 57 (37.7) n (%)
Best Overall Response: Progressive Disease (PD) [2]: 8 (5.3) n (%)
Best Overall Response: Unknown [2]: 6 (4.0) n (%)
Disease Control Rate (DCR: CR+PR+SD+Non-CR/Non-PD) [2]: 137 (90.7) n (%)
Overall Response Rate (ORR: CR + PR) [2]: 65 (43.0) n (%)
Clinically significant myelosuppression [3]: less than 10%
grade 3 or 4 lymphopenia [3]: 9%
grade 3 or 4 neutropenia [3]: 1%
grade 3 or 4 thrombocytopenia [3]: 2%
renal toxicities within the period of observation [3]: no evidence of renal toxicities
Reason for End of Randomized Treatment Phase: Death ([4]; Full Analysis Set): 4 (2.6) n (%)
Reason for End of Randomized Treatment Phase: Progressive Disease ([4]; Full Analysis Set): 42 (27.8) n (%)
Reason for End of Randomized Treatment Phase: Adverse Event ([4]; human, in vivo): 8 (5.3) n (%)
Treatment discontinuation due to adverse event ([4]; human, in vivo): 5.3%
discontinuation for progressive disease ([4]; randomized period): 27.8%
interaction with OCT2 (OCT2): absence of specific interaction
interaction with OATP1B3 (OATP1B3): absence of specific interaction
interaction with BCRP (BCRP): absence of specific interaction
